Measurements as given in US20210395354A1 (AMPSOURCE BIOPHARMA SHANGHAI, published 2021).

Experiments:
human NGF (his tag) [1] = target: T1, human NGF (his tag) (human, UniProt P01138 122-241, limits assumed); experiment: BLI (ForteBio Octet), human NGF (his tag) on Ni-NTA sensor
T1 construct: Captured on Ni-NTA sensors in the ForteBio Octet assay; also called hNGF; antigen; not shown: his tag
Experimental: (§1) The binding affinity constants of purified mouse monoclonal antibody #56 and #2 with antigens were determined by the bio film interference technique (fortebio octet Red & QK system, Pall company). […] After the kinetic fitting curve of affinity analysis, the affinity constant was calculated by analyzing the above data.

[2] = target: T2, human nerve growth factor (hNGF) (human, UniProt P01138 122-241); experiment: cell-based or functional assay
human NGF (his tag) [3] = target: T1, human NGF (his tag); experiment: BLI (ForteBio Octet), method of example 4
Experimental: as §1

[4] = target: T2, human nerve growth factor (hNGF); experiment: indirect ELISA on coated hNGF (0.2 µg/ml), detection with HRP anti-mouse IgG, OD 450 nm
Experimental: Indirect ELISA was used to determine the binding titers of purified mouse antibody #2, #56 and #98 to hNGF. Among them, each pore was coated with 100 μl 0.2 μg/ml hNGF (Corning company) and placed at 4° C. for 16-20 h. The PBS buffer in 96 well plate was sucked off, washed with PBST (pH 7.4, PBS containing 0.05% Tween 20) buffer once, then 200 μL/well PBST/1% skimmed milk powder was added, incubated at room temperature for 1 h and sealed. Remove the blocking solution, wash the plate with PBST buffer for 3 times, add PBST/1% skimmed milk powder to dilute to the appropriate concentration of anti-hngf mouse antibody to be tested, 100 μL/well, incubate at room temperature for 1.5 h. Remove the reaction system, wash the plate with PBST three times, and then use the HRP labeled Sheep anti mouse IgG polyclonal antibody (Jackson Laboratory) diluted with PBST/1% skimmed milk powder (dilution ratio 1:5000) at 50 μL/well as the detection antibody, and incubate at room temperature for 1 h. After 3 times of PBST washing, add 100 μL/well TMB and incubate at room temperature for 10-30 min. Add 50 μL/pore 0.2 M sulfuric acid to stop the reaction.

T2 sequence (P01138 122-241 limits assumed): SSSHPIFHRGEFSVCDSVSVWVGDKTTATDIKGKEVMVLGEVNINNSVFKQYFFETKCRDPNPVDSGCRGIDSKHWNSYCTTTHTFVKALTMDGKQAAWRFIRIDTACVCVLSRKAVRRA
T1 sequence (P01138 122-241 limits assumed): as above

| Binder | Kd (human NGF (his tag) [1]) [nM] | koff (human NGF (his tag) [1]) [s⁻¹] | kon (human NGF (his tag) [1]) [M⁻¹ s⁻¹] | IC50 (read off the curve), NGF-dependent TF-1 cell proliferation [2] [µg/mL] | Kd (human NGF (his tag) [3]) [nM] | koff (human NGF (his tag) [3]) [s⁻¹] | kon (human NGF (his tag) [3]) [M⁻¹ s⁻¹] | EC50 (read off the curve) [4] [µg/mL] |
| --- | --- | --- | --- | --- | --- | --- | --- | --- |
| mouse monoclonal antibody #56 (antibody, mouse IgG1, V domains shown, also called Chen 56; antibody secreted by hybridoma A56) VH: QVQLKESGPGLVAPSQSLSITCTVSGFSLTGYGVNWVRQPPGKGLEWLGMIWADGDTDYNSALKSRLSISKDNSKSQVFLKVNNLQTDDTARYYCARDSYYYGYNFFDVWGAGTTVTVSS VL: DIQMTQTTSSLSASLGDRVTISCRASQDISNYLNWYQQKPEGTLKLLIYYTSRLHSGVPSRFSGSGSGTDYSLTISSLEQEDIATYFCQQGNTLPRTFGGGTKLEIK | 0.0123 | 8.89e-06 | 723000 | ~0.4 | – | – | – | – |
| human mouse chimeric antibody AB5C1 (antibody, V domains shown) VH: QVQLKESGPGLVAPSQSLSITCTVSGFSLTGYGVNWVRQPPGKGLEWLGMIWADGDTDYNSALKSRLSISKDNSKSQVFLKVNNLQTDDTARYYCARDSYYYGYNFFDVWGAGTTVTVSS VL: DIQMTQTTSSLSASLGDRVTISCRASQDISNYLNWYQQKPEGTLKLLIYYTSRLHSGVPSRFSGSGSGTDYSLTISSLEQEDIATYFCQQGNTLPRTFGGGTKLEIK | – | – | – | ~0.9 | 0.0299 | 5.4e-05 | 1.81e+06 | – |
| humanized antibody AB5C6 (antibody, V domains shown, Humanized from #56 by surface remodeling) VH: QVQLKESGPGLVAPSETLSITCTVSGFSLTGYGVNWVRQPPGKGLEWLGMIWADGDTDYNSALKSRLTISKDNSKSQVFLKVNNLQTDDTARYYCARDSYYYGYNFFDVWGAGTTVTVSS VL: DIQMTQSPSSLSASVGDRVTISCRASQDISNYLNWYQQKPEGTLKLLIYYTSRLHSGVPSRFSGSGSGTDYSLTISSLQQEDIATYFCQQGNTLPRTFGGGTKLEIK | – | – | – | ~0.4 | 0.0102 | 1.61e-05 | 1.59e+06 | – |
| mouse monoclonal antibody #2 (antibody, mouse IgG1, V domains shown, also called Chen 2; antibody secreted by hybridoma A2) VH: QVQLQQSGPELARPGASVKLSCKASGYTFTDYWMQWVKQRPGQGLEWIGTIYPGDGYTRYIQKFKGRATLTADKSSSTAYMQLNSLASEDSAVYYCARRAAYYTMDYWGQGTSVTVSS VL: DIVMTQSHKFMSTSVGDRVSITCKASQDVNTAVAWYQQKPGQSPKLLIYWASTRHTGVPDRFTGSGSGTDYILTISSVQAEDLALYYCQQHYSSPWTFGGGTKLEIT | 0.0159 | 2.92e-05 | 1.83e+06 | – | – | – | – | ~0.007 |
| human mouse chimeric antibody AB5D1 (antibody, V domains shown) VH: QVQLQQSGPELARPGASVKLSCKASGYTFTDYWMQWVKQRPGQGLEWIGTIYPGDGYTRYIQKFKGRATLTADKSSSTAYMQLNSLASEDSAVYYCARRAAYYTMDYWGQGTSVTVSS VL: DIVMTQSHKFMSTSVGDRVSITCKASQDVNTAVAWYQQKPGQSPKLLIYWASTRHTGVPDRFTGSGSGTDYILTISSVQAEDLALYYCQQHYSSPWTFGGGTKLEIT | – | – | – | – | 0.0106 | 1.55e-05 | 1.46e+06 | – |
| humanized antibody AB5D6 (antibody, V domains shown, Humanized from #2 by surface remodeling) VH: QVQLQQSGPEVAKPGASVKLSCKASGYTFTDYWMQWVKQRPGQGLEWIGTIYPGDGYTRYIQKFKGRATLTADKSTSTAYMELNSLASEDSAVYYCARRAAYYTMDYWGQGTSVTVSS VL: DIVMTQSHKFMSTSVGDRVTITCKASQDVNTAVAWYQQKPGQSPKLLIYWASTRHTGVPDRFSGSGSGTDYILTISSVQAEDLALYYCQQHYSSPWTFGGGTKLEIT | – | – | – | – | 0.0157 | 2.22e-05 | 1.41e+06 | – |
| humanized antibody AB5D2 (antibody, V domains shown, Humanized from #2 by CDR transplantation) VH: QVQLVQSGAEVKKPGASVKVSCKASGYTFTDYWMQWVKQRPGQGLEWIGTIYPGDGYTRYIQKFKGRVTMTRDTSTSTVYMELSSLRSEDSAVYYCARRAAYYTMDYWGQGTLVTVSS VL: DIQMTQSPSSLSASVGDRVTITCKASQDVNTAVAWYQQKPGKAPKLLIYWASTRHTGVPDRFTGSGSGTDYTLTISSLQPEDLALYYCQQHYSSPWTFGGGTKVEIT | – | – | – | – | 0.00633 | 7.94e-06 | 1.25e+06 | – |
| humanized antibody AB5D4 (antibody, V domains shown, Humanized from #2 by CDR transplantation) VH: QVQLVQSGAEVKKPGASVKVSCKASGYTFTDYWMHWVKQAPGQGLEWMGIIYPGDGYTSYAQKFQGRVTMTRDTSTSTVYMELSSLRSEDTAVYYCARRAAYYTMDYWGQGTLVTVSS VL: DIQMTQSPSSLSASVGDRVTITCRASQDVNTALAWYQQKPGKAPKLLLYWASRLETGVPSRFSGSGSGTDYTLTISSLQPEDFATYYCQQHYSSPWTFGGGTKVEIT | – | – | – | – | 0.0182 | 3.25e-05 | 1.78e+06 | – |
| humanized antibody AB5D3 (antibody, V domains shown, Humanized from #2 by CDR transplantation) VH: QVQLVQSGAEVKKPGASVKVSCKASGYTFTDYWMHWVRQAPGQGLEWMGIIYPGDGYTSYAQKFQGRVTMTRDTSTSTVYMELSSLRSEDTAVYYCARRAAYYTMDYWGQGTLVTVSS VL: DIQMTQSPSSLSASVGDRVTITCRASQDVNTALAWYQQKPGKAPKLLLYWASRLESGVPSRFSGSGSGTDYTLTISSLQPEDFATYYCQQHYSSPWTFGGGTKVEIT | – | – | – | – | 0.0129 | 1.92e-05 | 1.49e+06 | – |
| humanized antibody AB5D5 (antibody, V domains shown, Humanized from #2 by CDR transplantation) VH: QVQLVQSGAEVKKPGASVKVSCKASGYTFTDYWMHWVKQAPGQGLEWMGIIYPGDGYTSYIQKFQGRVTMTRDTSTSTVYMELSSLRSEDTAVYYCARRAAYYTMDYWGQGTLVTVSS VL: DIQMTQSPSSLSASVGDRVTITCRASQDVNTALAWYQQKPGKAPKLLLYWASRLETGVPSRFSGSGSGTDYTLTISSLQPEDLATYYCQQHYSSPWTFGGGTKVEIT | – | – | – | – | 0.0154 | 1.89e-05 | 1.23e+06 | – |
| humanized antibody AB5C2 (antibody, V domains shown, Humanized from #56 by CDR transplantation) VH: QVQLQESGPGLVKPSETLSLTCTVSGFSLTGYGVNWVRQPPGKGLEWLGMIWADGDTDYNSALKSRVTISKDTSKNQFSLKLSSVTAADTARYYCARDSYYYGYNFFDVWGAGTTVTVSS VL: DIQMTQSPSSLSASVGDRVTITCRASQDISNYLNWYQQKPGKAPKLLIYYTSRLHSGVPSRFSGSGSGTDFTFTISSLQPEDIATYFCQQGNTLPRTFGGGTKVEIK | – | – | – | ~0.4 | 0.0013 | 2.16e-06 | 1.66e+06 | – |
| humanized antibody AB5C4 (antibody, V domains shown, Humanized from #56 by CDR transplantation) VH: QVQLQESGPGLVKPSETLSLTCTVSGFSLTGYGWGWVRQPPGKGLEWIGSIWADGDTYYNPSLKSRVTISVDTSKNQFSLKLSSVTAADTAVYYCARDSYYYGYNFFDVWGQGTMVTVSS VL: DIQMTQSPSSLSASVGDRVTITCQASQDISNYLNWYQQKPGKAPKLLIYYTSNLESGVPSRFSGSGSGTDFTFTISSLQPEDIATYYCQQGNTLPRTFGGGTKVEIK | – | – | – | – | 0.0153 | 2.23e-05 | 1.46e+06 | – |
| humanized antibody AB5C5 (antibody, V domains shown, Humanized from #56 by CDR transplantation) VH: QVQLQESGPGLVKPSETLSLTCTVSGFSLTGYGWGWVRQPPGKGLEWLGSIWADGDTYYNPSLKSRVTISVDTSKNQFSLKLSSVTAADTAVYYCARDSYYYGYNFFDVWGQGTMVTVSS VL: DIQMTQSPSSLSASVGDRVTITCQASQDISNYLNWYQQKPGKAPKLLIYYTSNLESGVPSRFSGSGSGTDFTFTISSLQPEDIATYFCQQGNTLPRTFGGGTKVEIK | – | – | – | – | 0.0089 | 1.59e-05 | 1.78e+06 | – |
| humanized antibody AB5C3 (antibody, V domains shown, Humanized from #56 by CDR transplantation) VH: QVQLQESGPGLVKPSETLSLTCTVSGFSLTGYGWGWIRQPPGKGLEWIGSIWADGDTYYNPSLKSRVTISVDTSKNQFSLKLSSVTAADTAVYYCARDSYYYGYNFFDVWGQGTMVTVSS VL: DIQMTQSPSSLSASVGDRVTITCQASQDISNYLNWYQQKPGKAPKLLIYYTSNLETGVPSRFSGSGSGTDFTFTISSLQPEDIATYYCQQGNTLPRTFGGGTKVEIK | – | – | – | – | 0.00755 | 9.87e-06 | 1.31e+06 | – |
